Measured values: article PMC4297576

Columns and labels:
[1] = molecular target: Cdk2/cyclin A complex (T160-phosphorylated full-length human Cdk2 and truncated human cyclin A2, residues 173-432) (human) (UniProt P24941)
[2] = molecular target: Cdk2/cyclin A complex (T160-phosphorylated full-length human Cdk2 and truncated human cyclin A2, residues 173-432) (human) (UniProt P24941); assay: ITC

Chain of peptide corresponding to sub-domain D1C (p21 residues 139-160) (P38936 139-160): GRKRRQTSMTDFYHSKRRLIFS

| IC50 of inhibition of Cdk2/cyclin A kinase activity, substrate Histone H1 [1] [nM] | IC50 of inhibition of Cdk2/cyclin A kinase activity, substrate Rb-C [1] [nM] | Kd [2] [nM] | Substance |
| --- | --- | --- | --- |
| 23.4 | 19.9 | – | p21-FL-Y77E (from UniProt P38936 1-164) (natural protein) |
| 55.4 | 22.8 | – | p21-KIDC-Y77E (from UniProt P38936 25-164) (domain or fragment) |
| 68.1 | 46.6 | – | p21-KIDN-Y77E (from UniProt P38936 9-84) (domain or fragment) |
| – | – | 208 | peptide corresponding to sub-domain D1C (p21 residues 139-160) (from UniProt P38936 139-160) |
